Measurements from the supplement of paper PMC9112550, “Optimization of the antimicrobial peptide Bac7 by deep mutational scanning” (BMC Biology, 2022).

test system: Escherichia coli TOP10; experiment: shrunken log2 fold change of peptide-encoding DNA abundance (4.5 h post-induction vs induction); higher = less antimicrobial activity (less host growth inhibition); details: time post-induction: 4.5 h; library: site-saturation at positions 5, 18, 19, 20
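Further: peptides expressed intracellularly from a pBAD plasmid library in pooled LB shake-flask culture, induced with 0.3% L-arabinose, DNA abundance read by NGS, three biological replicates, DESeq2 with apeglm shrinkage.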

| Sequence | shrunken log2 fold change |
| --- | --- |
| RRIRPRPPRLPRPRPRPYEEPRP | -0.214 |
| RRIRTRPPRLPRPRPRPKWMPRP | 0.00414 |
| RRIRARPPRLPRPRPRPYMHPRP | -0.361 |
| RRIRCRPPRLPRPRPRPAIAPRP | 0.165 |
| RRIRLRPPRLPRPRPRPPGLPRP | 0.149 |
| RRIRYRPPRLPRPRPRPHCAPRP | -0.544 |
| RRIRTRPPRLPRPRPRPTTIPRP | -0.111 |
| RRIRSRPPRLPRPRPRPHQNPRP | -0.0421 |
| RRIRTRPPRLPRPRPRPDLRPRP | -0.0122 |
| RRIRQRPPRLPRPRPRPSIMPRP | -0.0993 |
| RRIRARPPRLPRPRPRPFHMPRP | -1.05 |
| RRIRPRPPRLPRPRPRPHHMPRP | -0.778 |
| RRIRVRPPRLPRPRPRPFFGPRP | -0.0414 |
| RRIRRRPPRLPRPRPRPMYKPRP | -0.0524 |
| RRIRSRPPRLPRPRPRPGFNPRP | -0.038 |
| RRIRYRPPRLPRPRPRPQSNPRP | -0.07 |
| RRIRSRPPRLPRPRPRPLPLPRP | -0.0835 |
| RRIRVRPPRLPRPRPRPQWCPRP | 0.0102 |
| RRIRQRPPRLPRPRPRPHRVPRP | -0.00151 |
| RRIRWRPPRLPRPRPRPCGWPRP | 0.314 |
| RRIRIRPPRLPRPRPRPEMSPRP | -0.0264 |
| RRIRHRPPRLPRPRPRPAKCPRP | -0.0799 |

| Sequence | shrunken log2 fold change |
| --- | --- |
| RRIRKRPPRLPRPRPRPNKHPRP | -0.122 |
| RRIRDRPPRLPRPRPRPPNTPRP | 0.0945 |
| RRIRKRPPRLPRPRPRPNSSPRP | -0.0248 |
| RRIRKRPPRLPRPRPRPGYSPRP | -0.447 |
| RRIRERPPRLPRPRPRPQKPPRP | 0.0657 |
| RRIRPRPPRLPRPRPRPLVAPRP | 0.101 |
| RRIRDRPPRLPRPRPRPQDLPRP | 0.0112 |
| RRIRSRPPRLPRPRPRPSWWPRP | 0.0841 |
| RRIRDRPPRLPRPRPRPSRTPRP | 0.208 |
| RRIRGRPPRLPRPRPRPEPVPRP | 0.806 |
| RRIRERPPRLPRPRPRPAYYPRP | -0.356 |
| RRIRLRPPRLPRPRPRPGMGPRP | 0.241 |
| RRIRCRPPRLPRPRPRPMMKPRP | -0.231 |
| RRIRVRPPRLPRPRPRPEIAPRP | -0.0307 |
| RRIRVRPPRLPRPRPRPMTIPRP | -0.435 |
| RRIRERPPRLPRPRPRPCTMPRP | 0.018 |
| RRIRDRPPRLPRPRPRPETHPRP | 0.739 |
| RRIRNRPPRLPRPRPRPFWQPRP | 0.201 |
| RRIRYRPPRLPRPRPRPLTRPRP | -0.0623 |
| RRIRARPPRLPRPRPRPDKLPRP | 0.105 |
| RRIRIRPPRLPRPRPRPIACPRP | -0.0842 |
| RRIRIRPPRLPRPRPRPHFEPRP | -0.377 |

| Sequence | shrunken log2 fold change |
| --- | --- |
| RRIRRRPPRLPRPRPRPAQVPRP | -0.0303 |
| RRIRKRPPRLPRPRPRPHWPPRP | 0.31 |
| RRIRMRPPRLPRPRPRPDYDPRP | 0.635 |
| RRIRSRPPRLPRPRPRPYDVPRP | 0.0192 |
| RRIRTRPPRLPRPRPRPGNHPRP | -0.731 |
| RRIRERPPRLPRPRPRPEMDPRP | 0.125 |
| RRIRTRPPRLPRPRPRPDFVPRP | -0.106 |
| RRIRMRPPRLPRPRPRPHVVPRP | -0.0448 |
| RRIRWRPPRLPRPRPRPSGKPRP | -0.0778 |
| RRIRWRPPRLPRPRPRPDYMPRP | -0.0885 |
| RRIRYRPPRLPRPRPRPQIQPRP | -0.473 |
| RRIRWRPPRLPRPRPRPQINPRP | -0.348 |
| RRIRDRPPRLPRPRPRPCQVPRP | -0.0566 |
| RRIRMRPPRLPRPRPRPVVCPRP | 0.125 |
| RRIRKRPPRLPRPRPRPWVHPRP | -0.0825 |
| RRIRFRPPRLPRPRPRPVRRPRP | 0.122 |
| RRIRWRPPRLPRPRPRPALIPRP | 0.0212 |
| RRIRPRPPRLPRPRPRPLWDPRP | 0.00439 |
| RRIRGRPPRLPRPRPRPSTEPRP | 1.14 |
| RRIRARPPRLPRPRPRPQYEPRP | 0.181 |
| RRIRKRPPRLPRPRPRPASQPRP | 0.0905 |
| RRIRCRPPRLPRPRPRPVDKPRP | -0.184 |

| Sequence | shrunken log2 fold change |
| --- | --- |
| RRIRNRPPRLPRPRPRPCTYPRP | 0.05 |
| RRIRFRPPRLPRPRPRPTRNPRP | 0.184 |
| RRIRTRPPRLPRPRPRPGNLPRP | 0.021 |
| RRIRPRPPRLPRPRPRPPVNPRP | 0.15 |
| RRIRPRPPRLPRPRPRPRCYPRP | 0.0458 |
| RRIRCRPPRLPRPRPRPLYSPRP | -0.672 |
| RRIRQRPPRLPRPRPRPYFCPRP | -0.396 |
| RRIRHRPPRLPRPRPRPAHVPRP | 0.128 |
| RRIRDRPPRLPRPRPRPKLWPRP | 0.527 |
| RRIRQRPPRLPRPRPRPQKYPRP | -0.517 |
| RRIRIRPPRLPRPRPRPHKWPRP | -0.256 |
| RRIRPRPPRLPRPRPRPRMMPRP | 0.323 |
| RRIRERPPRLPRPRPRPVQLPRP | -0.329 |
| RRIRGRPPRLPRPRPRPLLTPRP | 2.34 |
| RRIRLRPPRLPRPRPRPWHWPRP | 0.019 |
| RRIRKRPPRLPRPRPRPAAFPRP | 0.59 |
| RRIRARPPRLPRPRPRPEKPPRP | 0.64 |
| RRIRERPPRLPRPRPRPTMSPRP | -0.217 |
| RRIRVRPPRLPRPRPRPQSKPRP | -0.172 |
| RRIRNRPPRLPRPRPRPMNSPRP | -0.148 |
| RRIRKRPPRLPRPRPRPSSAPRP | 0.214 |
| RRIRPRPPRLPRPRPRPIKMPRP | 0.0328 |

| Sequence | shrunken log2 fold change |
| --- | --- |
| RRIRYRPPRLPRPRPRPNWSPRP | 0.0306 |
| RRIRMRPPRLPRPRPRPRYYPRP | -0.261 |
| RRIRPRPPRLPRPRPRPYEWPRP | -0.874 |
| RRIRVRPPRLPRPRPRPGFTPRP | -0.143 |
| RRIRDRPPRLPRPRPRPKRPPRP | 0.449 |
| RRIRKRPPRLPRPRPRPIDTPRP | -0.0729 |
| RRIRARPPRLPRPRPRPHEQPRP | 0.257 |
| RRIRARPPRLPRPRPRPWITPRP | -0.0939 |
| RRIRNRPPRLPRPRPRPGLLPRP | -0.171 |
| RRIRWRPPRLPRPRPRPWHQPRP | 0.00792 |
| RRIRNRPPRLPRPRPRPPYAPRP | 0.161 |
| RRIRQRPPRLPRPRPRPWYIPRP | -0.0906 |
| RRIRHRPPRLPRPRPRPLFHPRP | -0.462 |
| RRIRSRPPRLPRPRPRPIHHPRP | -0.362 |
| RRIRIRPPRLPRPRPRPCFEPRP | -0.626 |
| RRIRQRPPRLPRPRPRPLPIPRP | 0.231 |
| RRIRMRPPRLPRPRPRPEMDPRP | 3.88 |
| RRIRDRPPRLPRPRPRPPYFPRP | -0.0365 |
| RRIRWRPPRLPRPRPRPHMFPRP | -0.0668 |
| RRIRSRPPRLPRPRPRPWHGPRP | -0.00232 |
| RRIRMRPPRLPRPRPRPQVSPRP | 0.399 |
